Experimental data reported in patent US20250346589A1, “RADIOISOTOPE LABELED SSTR2-AGONISTS WITH LINKERS” (Erasmus University Medical Center Rotterdam, priority 2022, published 2025).

Legend:
[1] = in vitro; type: in vitro ADME; conditions: for remaining at 1 h / remaining at 4 h / remaining at 24 h: mouse, serum, Stability in mouse serum (%)
Procedure: The ^203Pb-labelled compounds (˜2 MBq) or the ^212Pb-labelled compounds (˜70 kBq) were incubated in 300 μL of phosphate buffered saline (PBS; 0.1 M, pH 7.4) or mouse serum at 37° C. Stability of the radiolabed peptides was monitored at 1, 4 and 24 h post incubation. The samples in PBS were directly analyzed by radio-HPLC without any pretreatment. However, samples in mouse serum were mixed with an equal volume of acetonitrile to precipitate the proteins. The solution was centrifuged twice for 5 min at 13,000 rpm, and the supernatant was analyzed by radio-HPLC using Method 1 for lead-203 and Method 2 for lead-212.

[2] = test system: H69-tumor xenograft and organs; design: species or system mice; conditions: mouse, in vivo, iv
Procedure: Six-week-old male Balb/c nu/nu-specific and opportunistic pathogen-tree (SOPF) mice (Janvier Labs, Le Genest-Saint-Isle, France) were housed in individually ventilated cages, with 4 mice per cage. Upon arrival, mice were acclimated for 1 week, with access to food and water ad libitum. Mice were subcutaneously inoculated on the right shoulder with NCI-H69 cells (5×10^6 cells suspended in 100 μL of ⅓ Matrigel (Corning Inc., Corning, NY, USA) and ⅔ Hank's balanced salt solution (Gibco). NCI-H69 xenografts were allowed to grow for 3 weeks. Tumor sizes were 391±173 mm^3 at the start of the studies. All animal experiments were approved by the Animal Welfare Committee of the Erasmus MC and were conducted in agreement with institutional guidelines (license number: AVD101002017867).
Biodistribution studies were performed to determine tumor and organ uptake of [^212Pb]Pb-DOTAMTATE, [^212Pb]Pb-DOTAM-Amcha-TATE or [^212Pb]Pb-DOTAM-Pip-TATE. Animals (n=4 for each time point and each compound) were injected intravenously with an average of 100 kBq/0.5 nmol at t=0. At 3 selected time points (1, 4 and 24 h) p.i. blood was collected via cardiac puncture under isoflurane/O2 anesthesia, after which the mice were sacrificed. The tumor and organs of interest (prostate, pancreas, spleen, liver, GI tract (stomach, small intestine, large intestine), kidneys, lungs, heart, muscle, bone and tail) were excised, washed in PBS and blotted dry. To confirm receptor specificity of the 3 radiotracers uptake, NCI-H69-xenografted mice were co-injected with [212Pb] Pb-DOTAMTATE, [^212Pb]Pb-DOTAM-Amcha-TATE or [^212Pb]Pb-DOTAM-Pip-TATE plus an excess (25 nmol) of the respective unlabelled peptide (n=3), after which tumor and organ uptake was determined at 24 h p.i. The blood, tumor, and relevant organs were weighed and measured in a γ-counter. To determine the total injected radioactivity per animal, calibration curve with lead-212 was determined. The percentage of injected dose per gram (% ID/g) was determined for each tissue sample and corrected for both the injected volume and % ID present at the injection site (the tail). […] Pb-DOTAMTATE. In Table 3, the absorbed dose per administered activity (Gy/MBq; with RBE=5) in H69-tumor xenograft and organs for [^212Pb]Pb-DOTAM-TATE, [^212Pb]Pb-DOTAM-Amcha-TATE and [^212Pb]Pb-DOTAM-Pip-TATE is given.

Row | SMILES | Stability in mouse serum (%) ([1]; 1 h) | Stability in mouse serum (%) ([1]; 4 h) | Stability in mouse serum (%) ([1]; 24 h) | remaining at 1 h [1] | remaining at 4 h [1] | remaining at 24 h [1] | other results
1 | C[C@@H](O)[C@H](NC(=O)[C@@H]1CSSC[C@H](NC(=O)[C@@H](Cc2ccccc2)NC(=O)[C@H]2CC[C@H](CNC(=O)CN3CCN(CC(N)=O)CCN(CC(N)=O)CCN(CC(N)=O)CC3)CC2)C(=O)N[C@@H](Cc2ccc(O)cc2)C(=O)N[C@H](Cc2c[nH]c3ccccc23)C(=O)N[C@@H](CCCCN)C(=O)N[C@@H]([C@@H](C)O)C(=O)N1)C(=O)O [[^203Pb]Pb-DOTAM-Amcha-TATE] [metal not drawn] | 100% | 100% | 100% |  |  |  | 
2 | C[C@@H](O)[C@H](NC(=O)[C@@H]1CSSC[C@H](NC(=O)[C@@H](Cc2ccccc2)NC(=O)CN2CCC(NC(=O)CN3CCN(CC(N)=O)CCN(CC(N)=O)CCN(CC(N)=O)CC3)CC2)C(=O)N[C@@H](Cc2ccc(O)cc2)C(=O)N[C@H](Cc2c[nH]c3ccccc23)C(=O)N[C@@H](CCCCN)C(=O)N[C@@H]([C@@H](C)O)C(=O)N1)C(=O)O [[^203Pb]Pb-DOTAM-Pip-TATE] [metal not drawn] | 97% | 97% | 97% |  |  |  | 
3 | C[C@@H](O)[C@H](NC(=O)[C@@H]1CSSC[C@H](NC(=O)[C@@H](Cc2ccccc2)NC(=O)CN2CCN(CC(N)=O)CCN(CC(N)=O)CCN(CC(N)=O)CC2)C(=O)N[C@@H](Cc2ccc(O)cc2)C(=O)N[C@H](Cc2c[nH]c3ccccc23)C(=O)N[C@@H](CCCCN)C(=O)N[C@@H]([C@@H](C)O)C(=O)N1)C(=O)O [[^203Pb]Pb-DOTAM-TATE] [metal not drawn, reference compound] | 99% | 99% | 99% |  |  |  | 
4 | C[C@@H](O)[C@H](NC(=O)[C@@H]1CSSC[C@H](NC(=O)[C@@H](Cc2ccccc2)NC(=O)[C@H]2CC[C@H](CNC(=O)CN3CCN(CC(N)=O)CCN(CC(N)=O)CCN(CC(N)=O)CC3)CC2)C(=O)N[C@@H](Cc2ccc(O)cc2)C(=O)N[C@H](Cc2c[nH]c3ccccc23)C(=O)N[C@@H](CCCCN)C(=O)N[C@@H]([C@@H](C)O)C(=O)N1)C(=O)O [[^212Pb]Pb-DOTAM-Amcha-TATE, metal not drawn] |  |  |  | 96% | 96% | 93% | 
5 | C[C@@H](O)[C@H](NC(=O)[C@@H]1CSSC[C@H](NC(=O)[C@@H](Cc2ccccc2)NC(=O)[C@H]2CC[C@H](CNC(=O)CN3CCN(CC(N)=O)CCN(CC(N)=O)CCN(CC(N)=O)CC3)CC2)C(=O)N[C@@H](Cc2ccc(O)cc2)C(=O)N[C@H](Cc2c[nH]c3ccccc23)C(=O)N[C@@H](CCCCN)C(=O)N[C@@H]([C@@H](C)O)C(=O)N1)C(=O)O [[^212Pb]Pb-DOTAM-Amcha-TATE] [metal not drawn] |  |  |  |  |  |  | Absorbed dose per administered activity, Kidneys [2]: 121.73 ± 14.57 Gy/MBq; Absorbed dose per administered activity, Large Intestines [2]: 2.03 ± 0.26 Gy/MBq; Absorbed dose per administered activity, Liver [2]: 9.03 ± 2.24 Gy/MBq; Absorbed dose per administered activity, Lung [2]: 3.20 ± 0.40 Gy/MBq; Absorbed dose per administered activity, Pancreas [2]: 5.40 ± 0.14 Gy/MBq; Absorbed dose per administered activity, Spleen [2]: 0.73 ± 0.19 Gy/MBq; Absorbed dose per administered activity, Stomach wall [2]: 5.78 ± 0.77 Gy/MBq; Absorbed dose per administered activity, Tumor [2]: 35.49 ± 9.89 Gy/MBq
6 | C[C@@H](O)[C@H](NC(=O)[C@@H]1CSSC[C@H](NC(=O)[C@@H](Cc2ccccc2)NC(=O)CN2CCC(NC(=O)CN3CCN(CC(N)=O)CCN(CC(N)=O)CCN(CC(N)=O)CC3)CC2)C(=O)N[C@@H](Cc2ccc(O)cc2)C(=O)N[C@H](Cc2c[nH]c3ccccc23)C(=O)N[C@@H](CCCCN)C(=O)N[C@@H]([C@@H](C)O)C(=O)N1)C(=O)O [[^212Pb]Pb-DOTAM-Pip-TATE, metal not drawn] |  |  |  | 99% | 99% | 96% | 
7 | C[C@@H](O)[C@H](NC(=O)[C@@H]1CSSC[C@H](NC(=O)[C@@H](Cc2ccccc2)NC(=O)CN2CCN(CC(N)=O)CCN(CC(N)=O)CCN(CC(N)=O)CC2)C(=O)N[C@@H](Cc2ccc(O)cc2)C(=O)N[C@H](Cc2c[nH]c3ccccc23)C(=O)N[C@@H](CCCCN)C(=O)N[C@@H]([C@@H](C)O)C(=O)N1)C(=O)O [[^212Pb]Pb-DOTAM-TATE, metal not drawn, reference compound] |  |  |  | 99% | 99% | 97% | 
8 | C[C@@H](O)[C@H](NC(=O)[C@@H]1CSSC[C@H](NC(=O)[C@@H](Cc2ccccc2)NC(=O)CN2CCN(CC(N)=O)CCN(CC(N)=O)CCN(CC(N)=O)CC2)C(=O)N[C@@H](Cc2ccc(O)cc2)C(=O)N[C@H](Cc2c[nH]c3ccccc23)C(=O)N[C@@H](CCCCN)C(=O)N[C@@H]([C@@H](C)O)C(=O)N1)C(=O)O [[^212Pb]Pb-DOTAM-TATE] [metal not drawn, reference compound] |  |  |  |  |  |  | Absorbed dose per administered activity, Kidneys [2]: 140.03 ± 17.95 Gy/MBq; Absorbed dose per administered activity, Large Intestines [2]: 1.64 ± 0.30 Gy/MBq; Absorbed dose per administered activity, Liver [2]: 6.93 ± 0.64 Gy/MBq; Absorbed dose per administered activity, Lung [2]: 2.06 ± 0.29 Gy/MBq; Absorbed dose per administered activity, Pancreas [2]: 3.65 ± 0.28 Gy/MBq; Absorbed dose per administered activity, Spleen [2]: 0.56 ± 0.14 Gy/MBq; Absorbed dose per administered activity, Stomach wall [2]: 4.42 ± 1.30 Gy/MBq; Absorbed dose per administered activity, Tumor [2]: 26.61 ± 19.27 Gy/MBq
